Measurements from patent publication US20030157522A1, “Methods and reagents for peptide-BIR interaction screens” (priority 2001, published 2003).
No end group written: not given here.

Tests used:
[1] = system: T24 bladder carcinoma cells; assay: Sensitization of adriamycin-resistant T24 cells (cell survival); type: cell-based; conditions: 10 μg/ml adriamycin alone
Experimental: FIG. 8 is a schematic illustration showing the effect of a compound identified as being capable of dislodging a HID 7mer from XIAP BIR3 on cell survival of T24 bladder carcinoma cells after 24 hours of exposure to 10 μg/ml adriamycin.
This is what we would expect from a compound that blocks the ability of IAPs to block caspases once the cell death pathways are activated by a death stimulus such as chemotherapy or radiation. Cancer cells in vivo may also die by the simple addition of the compound if the cancer cell is stressed by oncogene activation, nutrient deprivation, or loss of contact, and the IAPs are blocking caspases from effecting programmed cell death. The compound would be expected to antagonize IAP function and allow caspase activation under these situations.

[2] = molecular target: T1, XIAP BIR3 (Homo sapiens, UniProt P98170); assay: Fluorescence polarization HID peptide displacement assay; type: binding; conditions: GST BIR3/Ring, fluorescein-HID probe
T1 construct: as the C-terminal portion of XIAP lacking BIR1 and BIR2, and containing BIR3 and the RING domain to the final C-terminal residue; made in house; host or cells: E. coli
T1 sequence (P98170 246-497 limits assumed): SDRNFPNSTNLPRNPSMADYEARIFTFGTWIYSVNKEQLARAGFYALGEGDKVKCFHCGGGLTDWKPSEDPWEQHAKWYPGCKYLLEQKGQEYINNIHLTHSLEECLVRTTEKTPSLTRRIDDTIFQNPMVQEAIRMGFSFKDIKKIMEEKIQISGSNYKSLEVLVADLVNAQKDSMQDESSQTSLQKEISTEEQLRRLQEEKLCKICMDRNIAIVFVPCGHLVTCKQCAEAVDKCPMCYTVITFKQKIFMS
From the text: We developed an assay to screen for compounds capable of competing for the binding of an IAP-interacting peptide and displacing the peptide from its binding groove on BIR3 of XIAP (FIGS. 2-5). The BIR3 domain was produced as a GST fusion protein in E. Coli, as the C-terminal portion of XIAP lacking BIR1 and BIR2, and containing BIR3 and the RING domain to the final C-terminal residue, and purified to greater than 95% purity. Only the properly folded BIR3 domain is required here, and many fusion and purification strategies are available to achieve this.
The FP assay is based on the following principles: a smaller molecule tumbles more rapidly in solution than a larger one. A tumbling fluor will depolarize plane-polarized light, and any change in tumbling rate due to binding of the peptide to a larger molecule such as XIAP or the displacement of the peptide from XIAP, and therefore any change in fluorescence polarization can be accurately and sensitively measured (FIGS. 2A and 2B). […]
Assays and High Throughput assays. […] Following overnight incubation at 4° C., the fluorescence polarization was measured using a Polarion plate reader (Tecan, Research Triangle Park, N.C.). […]
Upon primary screening, hits were re-supplied from Talon Cheminformatics (Acton, ON, Canada) and a new 20 mM drug stock was prepared in 10% DMSO. […] Fluorescence Polarization Units are expressed in MP (FIG. 6).

[3] = molecular target: T1, XIAP BIR3; conditions: previously shown; cited from earlier work

COc1cccc2c1C(=O)c1c(O)c3c(c(O)c1C2=O)C[C@@](O)(C(=O)CO)C[C@@H]3O[C@H]1C[C@H](N)[C@H](O)[C@H](C)O1 [adriamycin]
cell death with adriamycin on its own [1]: does not result in any cell death

Ala-Val-Pro-Phe-Tyr-Leu-Pro-Gly-Gly (AVPFYLPGG; not fully specified (C-terminus); printed as Ala-Val-Pro-Phe-Tyr-Leu-Pro-Gly-Gly; also: fluorescein label (probe form)) [HID peptide, peptide based on Drosophila HID with Gly-Gly spacer]
competition with / displacement of fluorescein-labeled HID peptide from XIAP BIR3 [2]: compete off the fluorescein-labeled peptide
competition with / displacement of fluorescein-labeled HID peptide from XIAP BIR3 ([2]; listed as HID polypeptide): can compete with labeled HID polypeptide
binding affinity to XIAP BIR3 [3]: high affinity
